Results taken from FireProtDB (doi:10.1021/bi00116a007).

Conditions: Escherichia coli (strain K12); pH 7.5; 25 °C; Urea; DSC; potassium-HEPES 40 mM; reversible: yes; whole UniProt chain shown

B1: Aspartate aminotransferase wild type, P00509 (protein)
chain: MFENITAAPADPILGLADLFRADERPGKINLGIGVYKDETGKTPVLTSVKKAEQYLLENETTKNYLGIDGIPEFGRCTQELLFGKGSALINDKRARTAQTPGGTGALRVAADFLAKNTSVKRVWVSNPSWPNHKSVFNSAGLEVREYAYYDAENHTLDFDALINSLNEAQAGDVVLFHGCCHNPTGIDPTLEQWQTLAQLSVEKGWLPLFDFAYQGFARGLEEDAEGLRAFAAMHKELIVASSYSKNFGLYNERVGACTLVAADSETVDRAFSQMKAAIRANYSNPPAHGASVVATILSNDALRAIWEQELTDMRQRIQRMRQLFVNTLQEKGANRDFSFIIKQNGMFSFSGLTKEQVLRLREEFGVYAVASGRVNVAGMTPDNMAPLCEAIVAVL
  denaturant m value: 2.56 kcal/mol/M
  denaturant midpoint (higher = more stable): 3.89 M
  unfolding free energy: 9.96 kcal/mol
